Experiment: melting temperature; melt of duplexes
Conditions: sodium 0.0675 M; strand 1 µM

Row | Substance | Tm [°C]
1 | CGACGTGCACAATGTGCTG+CAGCACATAGGGCACGTCG ((((((((.(.((((((((+)))))))).).)))))))) | 53
2 | CGACGTGCTCTATGTGCTG+CAGCACATAATGCACGTCG ((((((((..(((((((((+)))))))))..)))))))) | 50.4
3 | CGACGTGCACGATGTGCTG+CAGCACATAGCGCACGTCG ((((((((.(.((((((((+)))))))).).)))))))) | 50.3
4 | CGACGTGCTCCATGTGCTG+CAGCACATGACGCACGTCG ((((((((..(((((((((+)))))))))..)))))))) | 49.8
5 | CGACGTGCCAAATGTGCTG+CAGCACATGCTGCACGTCG ((((((((...((((((((+))))))))...)))))))) | 48.2
6 | CGACGTGCGGAATGTGCTG+CAGCACATAGCGCACGTCG (((((((((..((((((((+))))))))..))))))))) | 55.5
7 | CGACGTGCCAGATGTGCTG+CAGCACATCGAGCACGTCG ((((((((..(((((((((+)))))))))..)))))))) | 56.2
8 | CGACGTGCTGGATGTGCTG+CAGCACATGCCGCACGTCG ((((((((.(.((((((((+)))))))).).)))))))) | 53.6
9 | CGACGTGCGTGATGTGCTG+CAGCACATAAGGCACGTCG ((((((((.(.((((((((+)))))))).).)))))))) | 52.7
10 | CGACGTGCATTATGTGCTG+CAGCACATGGTGCACGTCG (((((((((..((((((((+))))))))..))))))))) | 51.8
11 | CGACGTGCGCCATGTGCTG+CAGCACATACGGCACGTCG ((((((((...((((((((+))))))))...)))))))) | 46.6
12 | CGACGTGCTTAATGTGCTG+CAGCACATATAGCACGTCG (((((((((..((((((((+))))))))..))))))))) | 54.2
13 | CGACGTGCGTTATGTGCTG+CAGCACATCGTGCACGTCG ((((((((...((((((((+))))))))...)))))))) | 44
14 | CGACGTGCACTATGTGCTG+CAGCACATGAGGCACGTCG ((((((((...((((((((+))))))))...)))))))) | 47.5
15 | CGACGTGCGAAATGTGCTG+CAGCACATGGGGCACGTCG ((((((((...((((((((+))))))))...)))))))) | 52
16 | CGACGTGCTGGATGTGCTG+CAGCACATATAGCACGTCG (((((((((..((((((((+))))))))..))))))))) | 54.6
17 | CGACGTGCTCGATGTGCTG+CAGCACATTTCGCACGTCG ((((((((...((((((((+))))))))...)))))))) | 48.1
18 | CGACGTGCCTGATGTGCTG+CAGCACATTTTGCACGTCG ((((((((...((((((((+))))))))...)))))))) | 48.8
19 | CGACGTGCAGTATGTGCTG+CAGCACATAGCGCACGTCG ((((((((..(((((((((+)))))))))..)))))))) | 51.7
20 | CGACGTGCCATATGTGCTG+CAGCACATCAAGCACGTCG ((((((((...((((((((+))))))))...)))))))) | 48.6
21 | CGACGTGCACGATGTGCTG+CAGCACATCATGCACGTCG (((((((((.(((((((((+))))))))).))))))))) | 55.3
22 | CGACGTGCGGGATGTGCTG+CAGCACATCACGCACGTCG (((((((((.(((((((((+))))))))).))))))))) | 63.8
23 | CGACGTGCTCGATGTGCTG+CAGCACATTCTGCACGTCG ((((((((...((((((((+))))))))...)))))))) | 49.4
24 | CGACGTGCAGTATGTGCTG+CAGCACATCGCGCACGTCG ((((((((...((((((((+))))))))...)))))))) | 49.9

Row | Substance | Tm [°C]
25 | CGACGTGCGCGATGTGCTG+CAGCACATGCAGCACGTCG ((((((((...((((((((+))))))))...)))))))) | 55.8
26 | CGACGTGCCAAATGTGCTG+CAGCACATGGCGCACGTCG ((((((((...((((((((+))))))))...)))))))) | 51.2
27 | CGACGTGCGATATGTGCTG+CAGCACATTGTGCACGTCG ((((((((...((((((((+))))))))...)))))))) | 47.6
28 | CGACGTGCCGCATGTGCTG+CAGCACATTGGGCACGTCG (((((((((..((((((((+))))))))..))))))))) | 54.4
29 | CGACGTGCCAGATGTGCTG+CAGCACATATCGCACGTCG ((((((((.(.((((((((+)))))))).).)))))))) | 49.1
30 | CGACGTGCTATATGTGCTG+CAGCACATCCGGCACGTCG ((((((((...((((((((+))))))))...)))))))) | 49
31 | CGACGTGCCCTATGTGCTG+CAGCACATCGCGCACGTCG ((((((((.(.((((((((+)))))))).).)))))))) | 48.1
32 | CGACGTGCCTGATGTGCTG+CAGCACATCGTGCACGTCG ((((((((..(((((((((+)))))))))..)))))))) | 51.4
33 | CGACGTGCTTTATGTGCTG+CAGCACATAAAGCACGTCG (((((((((((((((((((+))))))))))))))))))) | 61
34 | CGACGTGCTATATGTGCTG+CAGCACATATTGCACGTCG ((((((((.((((((((((+)))))))))).)))))))) | 56
35 | CGACGTGCTGAATGTGCTG+CAGCACATCTCGCACGTCG ((((((((...((((((((+))))))))...)))))))) | 50
36 | CGACGTGCCGTATGTGCTG+CAGCACATGGGGCACGTCG (((((((((..((((((((+))))))))..))))))))) | 57.1
37 | CGACGTGCCTTATGTGCTG+CAGCACATCATGCACGTCG ((((((((.(.((((((((+)))))))).).)))))))) | 47.7
38 | CGACGTGCGCCATGTGCTG+CAGCACATTGCGCACGTCG ((((((((((.((((((((+)))))))).)))))))))) | 59.3
39 | CGACGTGCTTGATGTGCTG+CAGCACATAAAGCACGTCG ((((((((((.((((((((+)))))))).)))))))))) | 57.7
40 | CGACGTGCGGCATGTGCTG+CAGCACATGCCGCACGTCG (((((((((((((((((((+))))))))))))))))))) | 68.9
41 | CGACGTGCTGGATGTGCTG+CAGCACATTGTGCACGTCG ((((((((...((((((((+))))))))...)))))))) | 48.3
42 | CGACGTGCGGTATGTGCTG+CAGCACATATTGCACGTCG ((((((((..(((((((((+)))))))))..)))))))) | 55
43 | CGACGTGCGCCATGTGCTG+CAGCACATGGAGCACGTCG ((((((((.((((((((((+)))))))))).)))))))) | 62.3
44 | CGACGTGCCAAATGTGCTG+CAGCACATACTGCACGTCG ((((((((...((((((((+))))))))...)))))))) | 47.4
45 | CGACGTGCTTTATGTGCTG+CAGCACATCCCGCACGTCG ((((((((...((((((((+))))))))...)))))))) | 46.8
46 | CGACGTGCCATATGTGCTG+CAGCACATGTAGCACGTCG ((((((((.(.((((((((+)))))))).).)))))))) | 51.3
47 | CGACGTGCGATATGTGCTG+CAGCACATATAGCACGTCG ((((((((.((((((((((+)))))))))).)))))))) | 57.5
48 | CGACGTGCTTTATGTGCTG+CAGCACATAATGCACGTCG ((((((((.((((((((((+)))))))))).)))))))) | 55.1

Row | Substance | Tm [°C]
49 | CGACGTGCCTTATGTGCTG+CAGCACATGCCGCACGTCG ((((((((...((((((((+))))))))...)))))))) | 46.9
50 | CGACGTGCAAGATGTGCTG+CAGCACATTCCGCACGTCG ((((((((...((((((((+))))))))...)))))))) | 49.4
51 | CGACGTGCTACATGTGCTG+CAGCACATGTAGCACGTCG (((((((((((((((((((+))))))))))))))))))) | 63.6
52 | CGACGTGCACAATGTGCTG+CAGCACATCTAGCACGTCG ((((((((...((((((((+))))))))...)))))))) | 45.9
53 | CGACGTGCGGAATGTGCTG+CAGCACATGGGGCACGTCG ((((((((...((((((((+))))))))...)))))))) | 52.9
54 | CGACGTGCGAAATGTGCTG+CAGCACATCGAGCACGTCG ((((((((...((((((((+))))))))...)))))))) | 55.9
55 | CGACGTGCTCGATGTGCTG+CAGCACATAATGCACGTCG ((((((((...((((((((+))))))))...)))))))) | 49.7
56 | CGACGTGCTACATGTGCTG+CAGCACATATGGCACGTCG ((((((((.(.((((((((+)))))))).).)))))))) | 51.3
57 | CGACGTGCTCAATGTGCTG+CAGCACATGGCGCACGTCG ((((((((.(.((((((((+)))))))).).)))))))) | 51.8
58 | CGACGTGCATTATGTGCTG+CAGCACATCCCGCACGTCG ((((((((...((((((((+))))))))...)))))))) | 46.1
59 | CGACGTGCAAGATGTGCTG+CAGCACATTAGGCACGTCG ((((((((...((((((((+))))))))...)))))))) | 51.3
60 | CGACGTGCTCTATGTGCTG+CAGCACATCATGCACGTCG ((((((((...((((((((+))))))))...)))))))) | 48.5
61 | CGACGTGCGTTATGTGCTG+CAGCACATTTTGCACGTCG ((((((((...((((((((+))))))))...)))))))) | 49.7
62 | CGACGTGCTTAATGTGCTG+CAGCACATGCAGCACGTCG (((((((((..((((((((+))))))))..))))))))) | 52
63 | CGACGTGCGTTATGTGCTG+CAGCACATAGAGCACGTCG ((((((((..(((((((((+)))))))))..)))))))) | 54.6
64 | CGACGTGCGGGATGTGCTG+CAGCACATCTGGCACGTCG ((((((((..(((((((((+)))))))))..)))))))) | 57.1
65 | CGACGTGCTAAATGTGCTG+CAGCACATCTGGCACGTCG ((((((((.(.((((((((+)))))))).).)))))))) | 51.1
66 | CGACGTGCCAAATGTGCTG+CAGCACATCTAGCACGTCG ((((((((.(.((((((((+)))))))).).)))))))) | 49.3
67 | CGACGTGCAACATGTGCTG+CAGCACATATTGCACGTCG ((((((((((.((((((((+)))))))).)))))))))) | 54.3
68 | CGACGTGCCGGATGTGCTG+CAGCACATCTAGCACGTCG ((((((((..(((((((((+)))))))))..)))))))) | 55
69 | CGACGTGCCGGATGTGCTG+CAGCACATTAGGCACGTCG (((((((((..((((((((+))))))))..))))))))) | 57
70 | CGACGTGCGACATGTGCTG+CAGCACATTCCGCACGTCG (((((((((..((((((((+))))))))..))))))))) | 53.6
71 | CGACGTGCGTCATGTGCTG+CAGCACATGATGCACGTCG ((((((((.((((((((((+)))))))))).)))))))) | 61.1
72 | CGACGTGCAATATGTGCTG+CAGCACATGAGGCACGTCG ((((((((...((((((((+))))))))...)))))))) | 51.3
